Assay results reported in the RNAGym collection of RNA variant scans (doi:10.7554/elife.80360).

B1: HDV Ribozyme (parent)
chain: GGCCGGCAUGGUCCCAGCCUCCUCGCUGGCGCCGGCUGGGCAACAUUCCGAGGGGACCGUCCCCUCGGUAAUGGCGAAUGGGACCCA

Variants of: B1
Assay: self-cleavage, relative activity (ratio to wild type); higher = more cleavage; co-transcriptional

Variant | self-cleavage
GGCCGGCAUGGUCCCAGUCUCCUCGCUGGCGCCGGCUGGGCAACAUUCCGAGGGGACCGUGCCCUCGGUAAUGGCGAAUGGGACCCA [C18U C61G] | 0.53
GGCCGGCAUGGUCCCAGUCUCCUCGCUGGCGCCGGCUGGGCAACAUUCCGAGGGGACCGUACCCUCGGUAAUGGCGAAUGGGACCCA [C18U C61A] | 0.709
GGCCGGCAUGGUCCCAGCAUCCUCGCUGGCGCCGGCUGGGCAACAUUCCGAGGGGACCGUCCCCUUGGUAAUGGCGAAUGGGACCCA [C19A C66U] | 0.116
GGCCGGCAUGGUCCCAGUCUCCUCGCUGGCGCCGGCUGGGCAACAUUCCUAGGGGACCGUCCCCUCGGUAAUGGCGAAUGGGACCCA [C18U G50U] | 0.639
GGCCGGCAUGGUCCCAGUCUCCUCGCUGGCGCCGGCUGGGCAACAUUCCCAGGGGACCGUCCCCUCGGUAAUGGCGAAUGGGACCCA [C18U G50C] | 0.705
GGCCGGCAUGGUCCCAGUCUCCUCGCUGGCGCCGCCUGGGCAACAUUCCGAGGGGACCGUCCCCUCGGUAAUGGCGAAUGGGACCCA [C18U G35C] | 0.119
GGCCGGCAUGGUCCCAGCAUCCUCGCUGGCGCCGGCUGGGCAAGAUUCCGAGGGGACCGUCCCCUCGGUAAUGGCGAAUGGGACCCA [C19A C44G] | 0.0615
GGCCGGCAUGGUCCCAGCAUCCUCGCUGGCGCCGGCUGGGCAACAUUCUGAGGGGACCGUCCCCUCGGUAAUGGCGAAUGGGACCCA [C19A C49U] | 0.185
GGCCGGCAUGGUCCCAGCAUCCUCGCUGGCGCCGGCUGGGCGACAUUCCGAGGGGACCGUCCCCUCGGUAAUGGCGAAUGGGACCCA [C19A A42G] | 0.0811
GGCCGGCAUGGUCCCAGUCUCCUCGCUGGCGCCGGCUGGGCAACAUGCCGAGGGGACCGUCCCCUCGGUAAUGGCGAAUGGGACCCA [C18U U47G] | 0.608
GGCCGGCAUGGUCCCAGUCUCCUCGCUGGCGCCGGCUGGGCAACAUUCCGAGGGGACCGUCCCCUCGGCAAUGGCGAAUGGGACCCA [C18U U69C] | 0.878
GGCCGGCAUGGUCCCAGUCUCCUCGCUGGCGCCGGCUGGGCAACAUUCCGAGGGGACCGUCCCCUCGGAAAUGGCGAAUGGGACCCA [C18U U69A] | 0.397
GGCCGGCAUGGUCCCAGUCUCCUCGCUGGCGCCGGCUGGGCAACAUUCCGAGGGGACCGUCCCCUCGGUAAUGGAGAAUGGGACCCA [C18U C75A] | 0.366
GGCCGGCAUGGUCCCAGUCUCCUCGCUGGCGCCGGCUGGGCAACAUUCCGAGGGGACCGUCCCCACGGUAAUGGCGAAUGGGACCCA [C18U U65A] | 0.635
GGCCGGCAUGGUCCCAGUCUCCUCGCUGGCGCCGGCUGGGCAACAUUCCGAGGGGACCGUCCCCGCGGUAAUGGCGAAUGGGACCCA [C18U U65G] | 0.554
GGCCGGCAUGGUCCCAGUCUCCUCGCUCGCGCCGGCUGGGCAACAUUCCGAGGGGACCGUCCCCUCGGUAAUGGCGAAUGGGACCCA [C18U G28C] | 0.089
GGCCGGCAUGGUCCCAGUCUCCUCGCUGGCGCCGGCUGGGCAACAUUCCGAGGGGACCGUCCCCUCGGUAAUGGCGAAUGCGACCCA [C18U G81C] | 0.136
GGCCGGCAUGGUCCCAGUCUCCUCGCUGGCGCCGGCUGGGCAACAUUCCGAGGGGACCGUCCCCUCGGUAAUGGCGAAUGAGACCCA [C18U G81A] | 0.265
GGCCGGCAUGGUCCCAGCAUCCUCGCUGGCGCGGGCUGGGCAACAUUCCGAGGGGACCGUCCCCUCGGUAAUGGCGAAUGGGACCCA [C19A C33G] | 0.0475
GGCCGGCAUGGUCCCAGCAUCCUCGCUGGCGCCGGCUGGGCAACAUUCCGAGGGGACCGUCCCCUCGGUAAUGGCGAAUGGGACCCC [C19A A87C] | 0.148
GGCCGGCAUGGUCCCAGCAUCCUCGCUGGCGCCGGCUGGGCAACAUUCCGAGGGGACCGUCCCCUCGGUAAUGGCGAAUGGGACCCG [C19A A87G] | 0.11
GGCCGGCAUGGUCCCAGCAUCCUCGCUGGCGCCGGCUGGGCAACAUUCCGAGGGGAGCGUCCCCUCGGUAAUGGCGAAUGGGACCCA [C19A C57G] | 0.119

Variant | self-cleavage
GGCCGGCAUGGUCCCAGCAUCCUCGCUGGCGCCGGCUGGGCAACAUUCCGAGGGGAACGUCCCCUCGGUAAUGGCGAAUGGGACCCA [C19A C57A] | 0.0801
GGCCGGCAUGGUCCCAGCAUCCUCGCUGGCGCCGGCUGGGCAACAUUCCGAGGGGACCGUCCCCUCGGUAAUGGCGAAUGGGCCCCA [C19A A83C] | 0.0426
GGCCGGCAUGGUCCCAGCAUCCUCGCUGGCGCCGGCUGGGCAACAUUCCGAGGGGACCGUCCCCUCGGUAAUGGCGAAUGGGUCCCA [C19A A83U] | 0.138
GGCCGGCAUGGUCCCAGCAUCCUCGCUGGCGCCGGCUGGGCAACAUUACGAGGGGACCGUCCCCUCGGUAAUGGCGAAUGGGACCCA [C19A C48A] | 0.0934
GGCCGGCAUGGUCCCAGCAUCCUCGCUGGCGCCGGCUGGGCAACAUUGCGAGGGGACCGUCCCCUCGGUAAUGGCGAAUGGGACCCA [C19A C48G] | 0.22
GGCCGGCAUGGUCCCAGCAUCCUCGCUGGCGCCGGCUGGGCAACAUUUCGAGGGGACCGUCCCCUCGGUAAUGGCGAAUGGGACCCA [C19A C48U] | 0.0683
GGCCGGCAUGGUCCCAGUCUCCUCGCUGACGCCGGCUGGGCAACAUUCCGAGGGGACCGUCCCCUCGGUAAUGGCGAAUGGGACCCA [C18U G29A] | 1.06
GGCCGGCAUGGUCCCAGUCUCCUCGCUGUCGCCGGCUGGGCAACAUUCCGAGGGGACCGUCCCCUCGGUAAUGGCGAAUGGGACCCA [C18U G29U] | 0.0639
GGCCGGCAUGGUCCCAGCAUCCUCACUGGCGCCGGCUGGGCAACAUUCCGAGGGGACCGUCCCCUCGGUAAUGGCGAAUGGGACCCA [C19A G25A] | 0.138
GGCCGGCAUGGUCCCAGUCUCCUCGCUGGCGCCGGCUGGGCAACAUUCCGAGGGGACCGUCCCCUCGGUAAUCGCGAAUGGGACCCA [C18U G73C] | 0.217
GGCCGGCAUGGUCCCAGUCUCCUCGCUGGCGCCGGCUGGGCAACAUUCCGAGGGGACCGUCCCCUCGGUAAUGGCGAAUGGUACCCA [C18U G82U] | 0.111
GGCCGGCAUGGUCCCAGCAUCCUCGCUGGCGCCGGCUGGGCAACAUUCCGAGGGGACCGUCCCCUCGGUAAUGGCGGAUGGGACCCA [C19A A77G] | 0.0302
GGCCGGCAUGGUCCCAGUCUCCUCGCUGGCGCCGGCUGGGCAACAUUCCGAGGCGACCGUCCCCUCGGUAAUGGCGAAUGGGACCCA [C18U G54C] | 0.606
GGCCGGCAUGGUCCCAGUCUCCUCGCUGGCGCCGGCUGGGCAACAUUCCGAGGGGACCGUCCCCUCGGUAAUGGCGAAUUGGACCCA [C18U G80U] | 0.0989
GGCCGGCAUGGUCCCAGUCUCCUCGCUGGCGCCGGCUGGGCAACAUUCCGAGGGGACCGUCCCCUCGGUAAUGGCCAAUGGGACCCA [C18U G76C] | 0.978
GGCCGGCAUGGUCCCAGCAUCCUCGCUGGCGCCGGCUGGGCAACAUUCCGAGGGGACCGUCCCCUCGGUAAUGGCGAGUGGGACCCA [C19A A78G] | 0.0845
GGCCGGCAUGGUCCCAGCAUCCUCGCUGGCGCCGGCUGGGCAACAUUCCGAGGGGACCGUCCCCUCGGUAAUGGCGAUUGGGACCCA [C19A A78U] | 0.138
GGCCGGCAUGGUCCCAGCAUCCUCGCUGGCGCCGGCUGGGCAACAUUCCGAGGGGGCCGUCCCCUCGGUAAUGGCGAAUGGGACCCA [C19A A56G] | 0.256
GGCCGGCAUGGUCCCAGCAUCCUAGCUGGCGCCGGCUGGGCAACAUUCCGAGGGGACCGUCCCCUCGGUAAUGGCGAAUGGGACCCA [C19A C24A] | 0.0831
GGCCGGCAUGGUCCCAGUCUCCUCGCUGGCGCCGGCUGGGCAACAUUCCGAGGGGACCGUCCCCUCGGUAAUGUCGAAUGGGACCCA [C18U G74U] | 0.166
GGCCGGCAUGGUCCCAGUCUCCUCGCUGGCGCCGGCUGGGCAACAUUCCGAGGGGACCGUCCCCUCGGUAAUGCCGAAUGGGACCCA [C18U G74C] | 0.0519
GGCCGGCAUGGUCCCAGUCUCCUCGCUGGCGCCGGCUGGGCAACAUUCCGAGGGCACCGUCCCCUCGGUAAUGGCGAAUGGGACCCA [C18U G55C] | 0.893

Variant | self-cleavage
GGCCGGCAUGGUCCCAGCAUCCUCGCUGGCGCCGGCUGGGCAACAUUCCGAGGGGACAGUCCCCUCGGUAAUGGCGAAUGGGACCCA [C19A C58A] | 0.095
GGCCGGCAUGGUCCCAGUCUCCUCGCUGGCGCCGGCUGGGCAACAUUCCGAGAGGACCGUCCCCUCGGUAAUGGCGAAUGGGACCCA [C18U G53A] | 0.639
GGCCGGCAUGGUCCCAGUCUCCUCGCUGGCGCCGGCUGGGCAACAUUCCGAGCGGACCGUCCCCUCGGUAAUGGCGAAUGGGACCCA [C18U G53C] | 0.607
GGCCGGCAUGGUCCCAGUCUCCUCGCCGGCGCCGGCUGGGCAACAUUCCGAGGGGACCGUCCCCUCGGUAAUGGCGAAUGGGACCCA [C18U U27C] | 0.268
GGCCGGCAUGGUCCCAGUCUCCUCGCAGGCGCCGGCUGGGCAACAUUCCGAGGGGACCGUCCCCUCGGUAAUGGCGAAUGGGACCCA [C18U U27A] | 0.95
GGCCGGCAUGGUCCCAGUCUCCUCGCUGGCGCCGGCUGGGCAACAUUCCGAGGGGACCGUCCCCUCGGUAAUGGCGAAUGGGACCGA [C18U C86G] | 0.704
GGCCGGCAUGGUCCCAGCAUCCUCGCUAGCGCCGGCUGGGCAACAUUCCGAGGGGACCGUCCCCUCGGUAAUGGCGAAUGGGACCCA [C19A G28A] | 0.225
GGCCGGCAUGGUCCCAGUCUCCUCGCUGGCGCCGGCUGGGCAACAAUCCGAGGGGACCGUCCCCUCGGUAAUGGCGAAUGGGACCCA [C18U U46A] | 0.291
GGCCGGCAUGGUCCCAGUCUCCUCGCUGGCGCCGGCUGGGCAACAUUCCGAGGGGACCCUCCCCUCGGUAAUGGCGAAUGGGACCCA [C18U G59C] | 0.651
GGCCGGCAUGGUCCCAGUCUCCUCGCUGGCGCCGGCUGGGCAACAUUCCGAGGGGACCGUCCCCUCGAUAAUGGCGAAUGGGACCCA [C18U G68A] | 0.739
GGCCGGCAUGGUCCCAGCAUCCUCGCUGGCGCCAGCUGGGCAACAUUCCGAGGGGACCGUCCCCUCGGUAAUGGCGAAUGGGACCCA [C19A G34A] | 0.0755
GGCCGGCAUGGUCCCAGCAUCCUCGCUGUCGCCGGCUGGGCAACAUUCCGAGGGGACCGUCCCCUCGGUAAUGGCGAAUGGGACCCA [C19A G29U] | 0.0733
GGCCGGCAUGGUCCCAGUCUCCUCGCUGGCGCCGGCUGGGCAACAUUCCGAGGGGACCGUCCCCUCGGUAAUGGCGAAUGGGACUCA [C18U C85U] | 0.582
GGCCGGCAUGGUCCCAGUCUCCUCGCUGGCGCCGGCUGCGCAACAUUCCGAGGGGACCGUCCCCUCGGUAAUGGCGAAUGGGACCCA [C18U G39C] | 0.0405
GGCCGGCAUGGUCCCAGCAUCCUCGCUGGCGCCGGCUGGGCAACAUUCCGAGGGGACCGUCCCCUCGGUAAUGGCGAAUGGGAUCCA [C19A C84U] | 0.0804
GGCCGGCAUGGUCCCAGCAUCCUCGCUGGCGCCGGCUGGGCAACAUUCCGAGGGGACCGUCCACUCGGUAAUGGCGAAUGGGACCCA [C19A C63A] | 0.153
GGCCGGCAUGGUCCCAGCAUCGUCGCUGGCGCCGGCUGGGCAACAUUCCGAGGGGACCGUCCCCUCGGUAAUGGCGAAUGGGACCCA [C19A C22G] | 0.155
GGCCGGCAUGGUCCCAGCAUCUUCGCUGGCGCCGGCUGGGCAACAUUCCGAGGGGACCGUCCCCUCGGUAAUGGCGAAUGGGACCCA [C19A C22U] | 0.0203
GGCCGGCAUGGUCCCAGUCCCCUCGCUGGCGCCGGCUGGGCAACAUUCCGAGGGGACCGUCCCCUCGGUAAUGGCGAAUGGGACCCA [C18U U20C] | 0.0923
GGCCGGCAUGGUCCCAGCAUCCUCGCUGGCGACGGCUGGGCAACAUUCCGAGGGGACCGUCCCCUCGGUAAUGGCGAAUGGGACCCA [C19A C32A] | 0.0604
